Results on one substance are retold here after paper PMC7501880.

A value given as a limit tells only on which side of the number the result lay.

The target of the assay is DIP-α^Nectin1 chimera (human | Drosophila) (UniProt Q15223). The assay can be described thus: SPR.

Regarding “Dpr10^Nectin3 chimera (from UniProt Q9NQS3 58-167)”, the dissociation constant (Kd) (in general, the free concentration of one partner at which half of the binding sites on the other are occupied at equilibrium, for simple one-to-one binding) was less than 5 mM.
